T1: 表达在肿瘤细胞NALM-6表面的CD19 (UniProt P15391 20-556, limits assumed)
T1 construct: whole, on cells; also called CD19阳性细胞; NALM-6细胞
T1 sequence (looked up): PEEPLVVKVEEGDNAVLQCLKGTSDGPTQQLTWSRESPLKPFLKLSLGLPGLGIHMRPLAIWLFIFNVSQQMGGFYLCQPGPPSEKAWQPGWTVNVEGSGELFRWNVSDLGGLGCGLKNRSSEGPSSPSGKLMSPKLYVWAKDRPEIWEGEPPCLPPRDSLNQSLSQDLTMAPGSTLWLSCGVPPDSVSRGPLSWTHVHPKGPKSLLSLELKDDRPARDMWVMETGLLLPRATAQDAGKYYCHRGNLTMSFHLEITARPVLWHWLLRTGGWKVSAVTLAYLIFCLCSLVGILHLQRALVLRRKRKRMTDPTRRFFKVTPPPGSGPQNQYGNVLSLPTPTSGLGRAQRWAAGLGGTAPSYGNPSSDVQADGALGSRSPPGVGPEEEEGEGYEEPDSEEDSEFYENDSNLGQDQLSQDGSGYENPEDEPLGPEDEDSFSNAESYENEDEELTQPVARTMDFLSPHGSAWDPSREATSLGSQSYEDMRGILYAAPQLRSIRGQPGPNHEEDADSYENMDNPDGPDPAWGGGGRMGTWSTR

T2: CD19蛋白 (购自acro) (UniProt P15391 20-291)
T2 construct: also called 重组CD19蛋白 (ACRO, CD9-H52H2)
T2 sequence (looked up): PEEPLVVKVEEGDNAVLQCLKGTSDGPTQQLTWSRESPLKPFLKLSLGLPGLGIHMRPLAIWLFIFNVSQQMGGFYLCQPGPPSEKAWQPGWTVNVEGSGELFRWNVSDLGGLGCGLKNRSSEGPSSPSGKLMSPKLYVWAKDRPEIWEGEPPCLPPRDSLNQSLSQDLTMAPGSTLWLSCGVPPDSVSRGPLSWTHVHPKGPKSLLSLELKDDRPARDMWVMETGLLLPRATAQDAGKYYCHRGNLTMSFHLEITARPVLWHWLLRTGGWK

T3: CD19胞外区蛋白 (abcam, ab234966, 氨基酸序列编号第20位至291位) (UniProt P15391 20-291)
T3 construct: range 20-291; also called 变性的CD19重组蛋白; CD19重组蛋白
T3 sequence (looked up): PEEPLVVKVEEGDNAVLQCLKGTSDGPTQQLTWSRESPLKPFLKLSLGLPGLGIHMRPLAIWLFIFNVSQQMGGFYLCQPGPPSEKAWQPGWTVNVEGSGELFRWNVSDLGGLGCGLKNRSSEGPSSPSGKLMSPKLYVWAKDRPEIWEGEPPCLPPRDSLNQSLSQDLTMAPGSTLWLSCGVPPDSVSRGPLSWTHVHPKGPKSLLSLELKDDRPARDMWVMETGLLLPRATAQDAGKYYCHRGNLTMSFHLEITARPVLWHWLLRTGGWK

B1: 抗CD19鼠源抗体 10H10-1 (antibody, V domains shown)
VH: EVQLQQSGAELVRPGTSVKVSCKASGYAFTNYFIEWVIQRPGQGLEWIGVINPGNSNTNYNEKFKGKATLTADKSSSTAYMQLSSLTSDDSAVYFCARSGTTATTYAMDYWGQGTSVIVSS
VL: DIVMTQTPLSLPVSLGDQVSISCRSSQTLVYSNGDTYLEWYLQKPGQSPKLLIYKLSNRFSGVPDRFSGSGSGTDFTLKISRVESEDLGVYYCFQGSYFPFTFGAGTKLEIK
notes: Murine anti-CD19 antibody from a hybridoma
B2: 10H10-1 scFv (单链抗体10H10-1) (scFv)
scFv: DIVMTQTPLSLPVSLGDQVSISCRSSQTLVYSNGDTYLEWYLQKPGQSPKLLIYKLSNRFSGVPDRFSGSGSGTDFTLKISRVESEDLGVYYCFQGSYFPFTFGAGTKLEIKGGGGSGGGGSGGGGSEVQLQQSGAELVRPGTSVKVSCKASGYAFTNYFIEWVIQRPGQGLEWIGVINPGNSNTNYNEKFKGKATLTADKSSSTAYMQLSSLTSDDSAVYFCARSGTTATTYAMDYWGQGTSVIVSS
notes: It was detected with PE-labelled goat anti-human antibody, and no tag or Fc is stated; also called CD19 scfv抗体 10H10-1

Key:
[1] = molecular target: T1, 表达在肿瘤细胞NALM-6表面的CD19; assay: flow cytometry on NALM-6 cells, FITC goat anti-mouse secondary
[2] = molecular target: T2, CD19蛋白 (购自acro); assay: ELISA, CD19 protein coated, antibody in twofold dilutions from 0.1mg/mL, OD450
[3] = molecular target: T3, CD19胞外区蛋白 (abcam, ab234966, …); assay: western blot on reduced, denatured CD19 extracellular domain, antibody at 20μg/mL
[4] = molecular target: T1, 表达在肿瘤细胞NALM-6表面的CD19; assay: flow cytometry of scFv on NALM-6 cells, PE goat anti-human secondary

Row | Binder | binding result [1] | binding result [2] | binding result [3] | binding result [4]
1 | B1 | binds | binds | binds | 
2 | B2 |  |  |  | binds
